From US8729030B2 (Affymax, Inc., priority 2003, dated 2014)
Bridges are numbered along the chain shown (N, C = ends). Where no end group is shown, it is not given here. [ ]: non-standard residue; d: D form. 1Nal = N[C@@H](Cc1cccc2ccccc12)C(=O)O; Sar = CNCC(=O)O

Molecular target: T1, human EPO-R (Homo sapiens, UniProt P19235)
T1 construct: expressed in transfected cells; host or cells: murine pre-B-cell line Baf3 (BaF3/Gal4/Elk/EPOR)
T1 sequence (P19235 25-508): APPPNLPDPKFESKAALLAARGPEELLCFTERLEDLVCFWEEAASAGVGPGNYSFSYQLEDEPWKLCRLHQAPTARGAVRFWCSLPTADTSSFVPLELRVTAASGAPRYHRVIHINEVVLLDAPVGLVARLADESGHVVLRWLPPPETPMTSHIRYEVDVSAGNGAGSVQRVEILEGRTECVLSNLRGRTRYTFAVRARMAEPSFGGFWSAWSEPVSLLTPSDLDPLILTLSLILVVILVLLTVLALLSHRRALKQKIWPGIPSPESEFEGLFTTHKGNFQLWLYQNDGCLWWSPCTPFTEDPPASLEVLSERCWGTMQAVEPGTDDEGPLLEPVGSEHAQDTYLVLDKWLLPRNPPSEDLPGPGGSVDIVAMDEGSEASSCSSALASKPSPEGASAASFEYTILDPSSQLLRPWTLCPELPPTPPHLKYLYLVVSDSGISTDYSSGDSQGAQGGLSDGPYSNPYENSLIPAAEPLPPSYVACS
Test: Proliferation assay (BaF3/Gal4/Elk/EPOR cells, MTT)
Type: cell-based
Details: Table 6, 48 h
Experimental: This assay is based upon a murine pre-B-cell line, Baf3, transfected to express human EPO-R. Proliferation of the resulting cell line, BaF3/Gal4/Elk/EPOR, is dependent on EPO-R activation. The degree of cell proliferation is quantitated using MTT, where the signal in the MTT assay is proportional to the number of viable cells.
The BaF3/Gal4/Elk/EPOR cells are cultured in spinner flasks in DMEM/F12 medium (Gibco) supplemented with 10% FBS (Hyclone) and 2% WEHI-3 supernatant (ATCC #TIB-68). Cultured cells are starved overnight, in a spinner flask at a cell density of 1×10^6 cells/ml, in DMEM/F12 medium supplemented with 10% FBS and 0.1% WEHI-3 supernatant. […] Absorbance of each well at a wavelength of 595 nm is then measured by spectrophotometry. Plots of the absorbance readings versus test peptide concentration are constructed and the EC50 calculated using Graph Pad software. The concentration of test peptide that results in a half-maximal absorbance is recorded as the EC50[See Table 2: Proliferation EC50].
The BaF3/Gal4/Elk/EPOR cells are cultured in spinner flasks in DMEM/F12 medium (Gibco) supplemented with 10% FBS (Hyclone) and 2% WEHI-3 supernatant (ATCC #TIB-68). […] Absorbance of each well at a wavelength of 595 nm is then measured by spectrophotometry. Plots of the absorbance readings versus test peptide concentration are constructed and the EC50 calculated using Graph Pad software. […]

In the case of “peptide dimer of monomers (AcG)GLYACHMGPIT(1-nal)VCQPLR(MeG)K (SEQ ID NO: 2) (Ac-GGLYACHMGPIT[1Nal]VCQPLR[Sar]K; disulfide 6-15 (inferred); not fully specified (residue 1); printed as (AcG)GLYACHMGPIT(1-nal)VCQPLR(MeG)K; also: homodimer, dimer linkage not given here) [Peptide I]”, the EC50 is reported as 0.165 nM.
